Results from patent publication US10800847.

Tests used:
[1] = biological target: HLA-A*8001 (A80) single antigen on Luminex beads (human); assay: Luminex single antigen bead assay, iBeads (#6), IVIg 1:8
[2] = biological target: HLA-A*6901 (A69) single antigen on Luminex beads (human); assay: as above
[3] = biological target: HLA-A*6802 (A68) single antigen on Luminex beads (human); assay: as above
[4] = biological target: HLA-A*6801 (A68) single antigen on beads (human); assay: Luminex, iBead vs regular bead, IVIg 1:8
[5] = biological target: HLA-A*2902 (A29) single antigen on beads (human); assay: Luminex, iBead vs regular bead, IVIg 1:8
[6] = biological target: HLA-A*3101 (A31) single antigen on beads (human); assay: Luminex, iBead vs regular bead, IVIg 1:8
[7] = biological target: HLA-A*3001 (A30) single antigen on beads (human); assay: Luminex, iBead vs regular bead, IVIg 1:8
[8] = biological target: HLA-A*3402 (A34) single antigen on beads (human); assay: Luminex, iBead vs regular bead, IVIg 1:8
[9] = biological target: HLA-A*6601 (A66) single antigen on beads (human); assay: Luminex, iBead vs regular bead, IVIg 1:8
[10] = biological target: HLA-A*3601 (A36) single antigen on beads (human); assay: Luminex, iBead vs regular bead, IVIg 1:8
[11] = biological target: HLA-A*3401 (A34) single antigen on beads (human); assay: Luminex, iBead vs regular bead, IVIg 1:8
[12] = biological target: HLA-A*3303 (A33) single antigen on beads (human); assay: Luminex, iBead vs regular bead, IVIg 1:8
[13] = biological target: HLA-A*3301 (A33) single antigen on beads (human); assay: Luminex, iBead vs regular bead, IVIg 1:8
HLA-B*1801 (B18) (human) = assay: Luminex iBeads (#6), IVIg diluted 1:8
HLA-B*1511 (B75) (human) = assay: Luminex iBeads (#6), IVIg diluted 1:8
HLA-B*1512 (B76) (human) = assay: Luminex iBeads (#6), IVIg diluted 1:8
HLA-B*1513 (B77) (human) = assay: Luminex iBeads (#6), IVIg diluted 1:8
HLA-B*1301 (B13) (human) = assay: Luminex iBeads (#6), IVIg diluted 1:8
HLA-B*1503 (B72) (human) = assay: Luminex iBeads (#6), IVIg diluted 1:8
HLA-B*1302 (B13) (human) = assay: Luminex iBeads (#6), IVIg diluted 1:8
HLA-B*1501 (B62) (human) = assay: Luminex iBeads (#6), IVIg diluted 1:8
HLA-B*1516 (B63) (human) = assay: Luminex iBeads (#6), IVIg diluted 1:8
HLA-B*1502 (B75) (human) = assay: Luminex iBeads (#6), IVIg diluted 1:8
HLA-B*0702 (B7) (human) = assay: Luminex iBeads (#6), IVIg diluted 1:8
HLA-B*0801 (B8) (human) = assay: Luminex iBeads (#6), IVIg diluted 1:8
HLA-B*1402 (B65) (human) = assay: Luminex iBeads (#6), IVIg diluted 1:8
HLA-B*1510 (B71) (human) = assay: Luminex iBeads (#6), IVIg diluted 1:8
[14] = biological target: Serum albumin on negative control beads (HSA/BSA) (human or bovine); assay: Luminex iBeads (#6), IVIg diluted 1:8
[15] = biological target: HLA-A*8001 (A80) single antigen on Luminex beads (human); assay: Luminex single antigen bead assay, regular beads (#7), IVIg 1:8
[16] = biological target: HLA-A*7401 (A74) single antigen on Luminex beads (human); assay: as above
[17] = biological target: HLA-A*6901 (A69) single antigen on Luminex beads (human); assay: as above
[18] = biological target: HLA-A*3201 (A32) single antigen on beads (human); assay: Luminex single-antigen regular beads (#7), IVIg 1:8
[19] = biological target: HLA-A*6801 (A68) single antigen on beads (human); assay: as above
[20] = biological target: HLA-A*2902 (A29) single antigen on beads (human); assay: as above
[21] = biological target: HLA-A*3101 (A31) single antigen on beads (human); assay: as above
[22] = biological target: HLA-A*3001 (A30) single antigen on beads (human); assay: as above
[23] = biological target: HLA-A*3402 (A34) single antigen on beads (human); assay: as above
[24] = biological target: HLA-A*6601 (A66) single antigen on beads (human); assay: as above
[25] = biological target: HLA-A*3002 (A30) single antigen on beads (human); assay: as above
[26] = biological target: HLA-A*3601 (A36) single antigen on beads (human); assay: as above
[27] = biological target: HLA-A*6602 (A66) single antigen on beads (human); assay: as above
[28] = biological target: HLA-A*3401 (A34) single antigen on beads (human); assay: as above
[29] = biological target: HLA-A*3303 (A33) single antigen on beads (human); assay: as above
[30] = biological target: HLA-A*3301 (A33) single antigen on beads (human); assay: as above

IVIg Gamunex-C Lot NKLK1 (antibody)
MFI [1]: 1190 MFI
MFI [2]: 2880 MFI
MFI [3]: 1950 MFI
Difference % (iBead MFI vs regular bead MFI) [4]: 0%
Difference % (iBead MFI vs regular bead MFI) [5]: 253%
Difference % (iBead MFI vs regular bead MFI) [6]: 0%
Difference % (iBead MFI vs regular bead MFI) [7]: 9%
Difference % (iBead MFI vs regular bead MFI) [8]: 0%
Difference % (iBead MFI vs regular bead MFI) [9]: 166%
Difference % (iBead MFI vs regular bead MFI) [10]: 120%
Difference % (iBead MFI vs regular bead MFI) [11]: 59%
Difference % (iBead MFI vs regular bead MFI) [12]: 189%
Difference % (iBead MFI vs regular bead MFI) [13]: 42%
MFI (HLA-B*1801 (B18) (human)): 0 MFI
MFI (HLA-B*1511 (B75) (human)): 1860 MFI
MFI (HLA-B*1512 (B76) (human)): 1420 MFI
MFI (HLA-B*1513 (B77) (human)): 841 MFI
MFI (HLA-B*1301 (B13) (human)): 1030 MFI
MFI (HLA-B*1503 (B72) (human)): 0 MFI
MFI (HLA-B*1302 (B13) (human)): 0 MFI
MFI (HLA-B*1501 (B62) (human)): 53 MFI
MFI (HLA-B*1516 (B63) (human)): 1210 MFI
MFI (HLA-B*1502 (B75) (human)): 91 MFI
MFI (HLA-B*0702 (B7) (human)): 0 MFI
MFI (HLA-B*0801 (B8) (human)): 0 MFI
MFI (HLA-B*1402 (B65) (human)): 0 MFI
MFI (HLA-B*1510 (B71) (human)): 347 MFI
MFI [14]: 7800 MFI
MFI [15]: 1680 MFI
MFI [16]: 224 MFI
MFI [17]: 2780 MFI
MFI [18]: 424 MFI
MFI [19]: 0 MFI
MFI [20]: 820 MFI
MFI [21]: 0 MFI
MFI [22]: 1230 MFI
MFI [23]: 0 MFI
MFI [24]: 875 MFI
MFI [25]: 562 MFI
MFI [26]: 704 MFI
MFI [27]: 838 MFI
MFI [28]: 2150 MFI
MFI [29]: 179 MFI
MFI [30]: 925 MFI
